Legend:
IgG1 Fc^E382R (human) = assay: crystal structure; EndoS^D233A/E235L and IgG1 Fc^E382R combined 1:1, complex purified by SEC, exchanged into 50 mM HEPES, 150 mM KCl pH 7.5; crystals in Morpheus condition (0.09 M halogens, buffer system 2 pH 7.5, 37.5 % precipitant mix 4); space group P2_(1)2_(1)2_(1), 3.45 Å
IgG1 Fc^E382A (human) = assay: crystal structure; IdeS^C94A and IgG1 Fc^E382A combined 1:1, complex purified by SEC, exchanged into 50 mM HEPES, 150 mM KCl pH 7.5; crystals in Morpheus condition (0.12 M monosaccharides mix, buffer system 3 pH 8.5, 30 % precipitant mix 1); space group C121, twinned data, 2.34 Å

EndoS^D233A/E235L (truncated EndoS, residues 98-995) (from UniProt Q99Y92 98-995) (enzyme)
stoichiometry N (EndoS per IgG1 Fc molecule) (IgG1 Fc^E382R (human)): 2

IdeS^C94A (IdeS from Streptococcus pyogenes strain MGAS15252, Mac-2 variant, amino acids 41-339) (enzyme)
stoichiometry N (IgG1 Fc^E382A (human)): 1 IdeS per Fc
